Values of other authors as cited in paper PMC7538161.

Biological target: CaMKII calmodulin-binding element peptide (Peptide A) calmodulin-binding element peptide (Homo sapiens) (UniProt Q9UQM7)
Sequence (Q9UQM7 290-309): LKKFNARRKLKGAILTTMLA

Sequence of CaMKII hub hub domain (Q9UQM7 345-475): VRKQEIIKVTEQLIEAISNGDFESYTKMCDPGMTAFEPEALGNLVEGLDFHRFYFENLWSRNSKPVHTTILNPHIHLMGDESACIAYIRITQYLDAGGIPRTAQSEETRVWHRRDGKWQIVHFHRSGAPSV

Kd: 90 µM
Substance: CaMKII hub hub domain (from UniProt Q9UQM7)
